From article PMC5013986 (RNA Biology, 2016)
Where two headings read alike, the source gives them in different places.

B1: Strep-tagged GapA lacking SR1P (enzyme, B. subtilis, UniProt P09124 1-335, looked up)
chain: MAVKVGINGFGRIGRNVFRAALNNPEVEVVAVNDLTDANMLAHLLQYDSVHGKLDAEVSVDGNNLVVNGKTIEVSAERDPAKLSWGKQGVEIVVESTGFFTKRADAAKHLEAGAKKVIISAPANEEDITIVMGVNEDKYDAANHDVISNASCTTNCLAPFAKVLNDKFGIKRGMMTTVHSYTNDQQILDLPHKDYRRARAAAENIIPTSTGAAKAVSLVLPELKGKLNGGAMRVPTPNVSLVDLVAELNQEVTAEEVNAALKEAAEGDLKGILGYSEEPLVSGDYNGNKNSSTIDALSTMVMEGSMVKVISWYDNESGYSNRVVDLAAYIAKKGL
B2: GapA_(Strep)/SR1P (Strep-tagged GapA carrying SR1P) (complex)
chain 1: MAVKVGINGFGRIGRNVFRAALNNPEVEVVAVNDLTDANMLAHLLQYDSVHGKLDAEVSVDGNNLVVNGKTIEVSAERDPAKLSWGKQGVEIVVESTGFFTKRADAAKHLEAGAKKVIISAPANEEDITIVMGVNEDKYDAANHDVISNASCTTNCLAPFAKVLNDKFGIKRGMMTTVHSYTNDQQILDLPHKDYRRARAAAENIIPTSTGAAKAVSLVLPELKGKLNGGAMRVPTPNVSLVDLVAELNQEVTAEEVNAALKEAAEGDLKGILGYSEEPLVSGDYNGNKNSSTIDALSTMVMEGSMVKVISWYDNESGYSNRVVDLAAYIAKKGL
chain 2: MGTIVCQDCNEAIHYFEDEKVTTLYGTCCGQCQCPVDEE

Tests used:
[1] = molecular target: T1, His-tagged RNase J1 (B. subtilis, UniProt Q45493 1-555); assay: far-Western, overlay or dot blot
T1 sequence (Q45493 whole entry): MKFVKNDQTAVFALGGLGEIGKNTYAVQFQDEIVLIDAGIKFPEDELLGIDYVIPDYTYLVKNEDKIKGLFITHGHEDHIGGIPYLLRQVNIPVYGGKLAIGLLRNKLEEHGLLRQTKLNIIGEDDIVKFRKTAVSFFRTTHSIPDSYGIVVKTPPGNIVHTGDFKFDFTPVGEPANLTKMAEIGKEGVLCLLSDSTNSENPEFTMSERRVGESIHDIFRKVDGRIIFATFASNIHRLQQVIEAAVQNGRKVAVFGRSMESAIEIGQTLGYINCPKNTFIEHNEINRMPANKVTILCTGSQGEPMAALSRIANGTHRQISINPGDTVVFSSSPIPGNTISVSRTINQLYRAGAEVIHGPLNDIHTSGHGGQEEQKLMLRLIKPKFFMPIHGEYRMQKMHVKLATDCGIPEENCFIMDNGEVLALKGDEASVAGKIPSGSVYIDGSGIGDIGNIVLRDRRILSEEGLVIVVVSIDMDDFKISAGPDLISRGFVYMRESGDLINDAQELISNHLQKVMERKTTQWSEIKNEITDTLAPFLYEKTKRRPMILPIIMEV

[2] = molecular target: T1, His-tagged RNase J1; assay: far-Western, overlay or dot blot; remark: listed apart in the source
[3] = molecular target: B1; assay: pull-down
[4] = molecular target: B2; assay: pull-down

B1
binding result [1]: binds

B2
binding result [2]: binds

B3: untagged GapA (enzyme, UniProt P09124 1-335, looked up)
chain: MAVKVGINGFGRIGRNVFRAALNNPEVEVVAVNDLTDANMLAHLLQYDSVHGKLDAEVSVDGNNLVVNGKTIEVSAERDPAKLSWGKQGVEIVVESTGFFTKRADAAKHLEAGAKKVIISAPANEEDITIVMGVNEDKYDAANHDVISNASCTTNCLAPFAKVLNDKFGIKRGMMTTVHSYTNDQQILDLPHKDYRRARAAAENIIPTSTGAAKAVSLVLPELKGKLNGGAMRVPTPNVSLVDLVAELNQEVTAEEVNAALKEAAEGDLKGILGYSEEPLVSGDYNGNKNSSTIDALSTMVMEGSMVKVISWYDNESGYSNRVVDLAAYIAKKGL
binding result [1]: binds

B4: RNase J1 (enzyme)
chain: not shown
GapA-RNase J1 ratio [3]: ~200 GapA per RNase J1
GapA/SR1P-RNase J1 ratio [4]: 80 GapA/SR1P per RNase J1
